Source: patent US20220017589A1 (BEIJING QL BIOPHARMACEUTICAL, published 2022)
Positions count from the first letter of the chain named. One block for each binder: values may come before it.

Tests used:
human GFRAL = molecular target: T1, human GFRAL (human, UniProt Q6UXV0 19-394); experiment: cell-based or functional assay
T1 sequence (looked up): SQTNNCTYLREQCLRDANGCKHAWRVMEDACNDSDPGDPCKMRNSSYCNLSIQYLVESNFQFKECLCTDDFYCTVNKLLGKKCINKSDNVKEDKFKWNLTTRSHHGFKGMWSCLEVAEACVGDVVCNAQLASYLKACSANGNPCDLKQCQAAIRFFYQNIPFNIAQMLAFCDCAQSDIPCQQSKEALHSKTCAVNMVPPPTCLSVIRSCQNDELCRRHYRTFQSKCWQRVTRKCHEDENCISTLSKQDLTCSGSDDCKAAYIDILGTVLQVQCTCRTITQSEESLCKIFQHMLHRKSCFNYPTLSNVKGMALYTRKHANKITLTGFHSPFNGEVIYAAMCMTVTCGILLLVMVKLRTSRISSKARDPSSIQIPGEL

human GLP-1 receptor = human GLP-1 receptor (human, UniProt P43220 24-463); experiment: cell-based or functional assay

GDF15 activity (EC50, pM) (human GFRAL): 30.2 pM | GLP-1 activity (EC50, pM) (human GLP-1 receptor): 1.6 pM
B3: MLC088 (ligand)
chain: HGEGTFTSDVSSYLEEQAAKEFIAWLVRGGGGAQPGAQPGAQPGAQPGAQPGAQPGAQPGAQPGQEPGAQPCQEPGAQPGQEPGAQPGQEPGAQPGQEPGAQPGQEPGAQPARQGDHCPLGPGRCCRLHTVRASLEDLGWADWVLSPREVQVTMCIGACPSQFRAANLHAQIKTSLHRLKPDTVPAPCCVPASYNPMVLIQKTDTGVSLQTYDDLLAKDCHCI
modifications: Moiety C (HOOC-(CH2)20-CO-gGlu-2XADO-EDA-CO-CH2) on 41C of Linker (72C of fusion polypeptide)

GDF15 activity (EC50, pM) (human GFRAL): 48.6 pM | GLP-1 activity (EC50, pM) (human GLP-1 receptor): 2.2 pM
B4: MLC092 (ligand)
chain: B3 chain with E66C, C72G
modifications: Moiety C (HOOC-(CH2)20-CO-gGlu-2XADO-EDA-CO-CH2) on 35C of Linker (66C of fusion polypeptide)

GDF15 activity (EC50, pM) (human GFRAL): 23.6 pM | GLP-1 activity (EC50, pM) (human GLP-1 receptor): 1.5 pM
B5: MLC090 (ligand)
chain: B3 chain with A69Q, Q70C, C72G
modifications: Moiety C (HOOC-(CH2)20-CO-gGlu-2XADO-EDA-CO-CH2) on 39C of Linker (70C of fusion polypeptide)

GDF15 activity (EC50, pM) (human GFRAL): 34.9 pM | GLP-1 activity (EC50, pM) (human GLP-1 receptor): 2 pM
B6: MLC091 (ligand)
chain: B3 chain with E66C, C72G
modifications: Moiety B (HOOC-(CH2)16-CO-gGlu-2XADO-EDA-CO-CH2) on 35C of Linker (66C of fusion polypeptide)

GDF15 activity (EC50, pM) (human GFRAL): 79.4 pM | GLP-1 activity (EC50, pM) (human GLP-1 receptor): 0.88 pM
B10: MLC104 (ligand)
chain: HGEGTFTSDVSSYLEEQAAREFIAWLVRGGGGQEPGAQPGQEPGAQPGQEPGAQPGQEPGAQPGQEPGAQPGQEPGAQPGAQPGAQPGAQPGAQPGAQPGAQPGAQKGAQPARQGDHCPLGPGRCCRLHTVRASLEDLGWADWVLSPREVQVTMCIGACPSQFRAANLHAQIKTSLHRLRPDTVPAPCCVPASYNPMVLIQRTDTGVSLQTYDDLLARDCHCI
modifications: Moiety A (HOOC-(CH2)16-CO-gGlu-2XADO) on 76K of Linker (107K of fusion polypeptide)

GDF15 activity (EC50, pM) (human GFRAL): 70.5 pM | GLP-1 activity (EC50, pM) (human GLP-1 receptor): 1.3 pM
B15: MLC084 (ligand)
chain: B10 chain with R20K, A69Q, Q70C, K107P, R180K, R202K, R218K
modifications: Moiety C (HOOC-(CH2)20-CO-gGlu-2XADO-EDA-CO-CH2) on 39C of Linker (70C of fusion polypeptide)

GDF15 activity (EC50, pM) (human GFRAL): 79.2 pM | GLP-1 activity (EC50, pM) (human GLP-1 receptor): 0.89 pM
B17: MLC103 (ligand)
chain: B10 chain with Q102K, K107P
modifications: Moiety A (HOOC-(CH2)16-CO-gGlu-2XADO) on 71K of Linker (102K of fusion polypeptide)

GDF15 activity (EC50, pM) (human GFRAL): 32.4 pM | GLP-1 activity (EC50, pM) (human GLP-1 receptor): 1.1 pM
B18: MLC086 (ligand)
chain: B10 chain with R20K, G68C, A69Q, Q70A, K107P, R180K, R202K, R218K
modifications: Moiety C (HOOC-(CH2)20-CO-gGlu-2XADO-EDA-CO-CH2) on 37C of Linker (68C of fusion polypeptide)

GDF15 activity (EC50, pM) (human GFRAL): 22 pM | GLP-1 activity (EC50, pM) (human GLP-1 receptor): 1.5 pM
B23: MLC085 (ligand)
chain: B10 chain with R20K, G68C, A69Q, Q70A, K107P, R180K, R202K, R218K
modifications: Moiety B (HOOC-(CH2)16-CO-gGlu-2XADO-EDA-CO-CH2) on 37C of Linker (68C of fusion polypeptide)

Continued, binder first:

B1: MLC005 (ligand)
chain: HGEGTFTSDVSSYLEEQAAREFIAWLVRGGGGQEPGQEPGQEKGQEPGQEPGQEPGQEPGQEPGAQPGAQPARQGDHCPLGPGRCCRLHTVRASLEDLGWADWVLSPREVQVTMCIGACPSQFRAANLHAQIKTSLHRLRPDTVPAPCCVPASYNPMVLIQRTDTGVSLQTYDDLLARDCHCI
modifications: Moiety A (HOOC-(CH2)16-CO-gGlu-2XADO) on 12K of Linker (43K of fusion polypeptide)
GDF15 activity (EC50, pM) (human GFRAL): 20.3 pM | GLP-1 activity (EC50, pM) (human GLP-1 receptor): 3 pM

B2: MLC030 (ligand)
chain: HGEGTFTSDVSSYLEEQAAREFIAWLVRGGGGQEPGQEPGQEPGQKPGQEPGQEPGQEPGQEPGAQPGAQPGAQPGAQPGAQPGAQPGAQPGAQPGAQPGAQPGAQPGAQPARQGDHCPLGPGRCCRLHTVRASLEDLGWADWVLSPREVQVTMCIGACPSQFRAANLHAQIKTSLHRLRPDTVPAPCCVPASYNPMVLIQRTDTGVSLQTYDDLLARDCHCI
modifications: Moiety A (HOOC-(CH2)16-CO-gGlu-2XADO) on 15K of Linker (46K of fusion polypeptide)
GDF15 activity (EC50, pM) (human GFRAL): 52.3 pM | GLP-1 activity (EC50, pM) (human GLP-1 receptor): 0.9 pM

B7: MLC047 (ligand)
chain: B10 chain with P71K, K107P
modifications: Moiety A (HOOC-(CH2)16-CO-gGlu-2XADO) on 40K of linker (71K of fusion polypeptide) per Table 2; Table 3 prints 41K of linker
GDF15 activity (EC50, pM) (human GFRAL): 59.4 pM | GLP-1 activity (EC50, pM) (human GLP-1 receptor): 1 pM

B8: MLC004 (ligand)
chain: B10 chain with R20K, K107P
modifications: Moiety A (HOOC-(CH2)16-CO-gGlu-2XADO) on 26K of GLP-1 (20K of fusion polypeptide)
GDF15 activity (EC50, pM) (human GFRAL): 17.3 pM | GLP-1 activity (EC50, pM) (human GLP-1 receptor): 8.3 pM

B9: MLC080 (ligand)
chain: B10 chain with R20K, E66C, A81Q, Q82E, K107P, R180K, R202K, R218K
modifications: Moiety B (HOOC-(CH2)16-CO-gGlu-2XADO-EDA-CO-CH2) on 35C of Linker (66C of fusion polypeptide)
GDF15 activity (EC50, pM) (human GFRAL): 86.8 pM | GLP-1 activity (EC50, pM) (human GLP-1 receptor): 1.6 pM

B11: MLC016 (ligand)
chain: B10 chain with P83K, K107P
modifications: Moiety A (HOOC-(CH2)16-CO-gGlu-2XADO) on 52K of Linker (83K of fusion polypeptide)
GDF15 activity (EC50, pM) (human GFRAL): 110 pM | GLP-1 activity (EC50, pM) (human GLP-1 receptor): 2.5 pM

B12: MLC074 (ligand)
chain: B10 chain with R20K, G72C, K107P, R180K, R202K, R218K
modifications: Moiety B (HOOC-(CH2)16-CO-gGlu-2XADO-EDA-CO-CH2) on 41C of Linker (72C of fusion polypeptide)
GDF15 activity (EC50, pM) (human GFRAL): 41.1 pM | GLP-1 activity (EC50, pM) (human GLP-1 receptor): 0.94 pM

B13: MLC081 (ligand)
chain: B10 chain with R20K, E66C, A81Q, Q82E, K107P, R180K, R202K, R218K
modifications: Moiety C (HOOC-(CH2)20-CO-gGlu-2XADO-EDA-CO-CH2) on 35C of Linker (66C of fusion polypeptide)
GDF15 activity (EC50, pM) (human GFRAL): 69.8 pM | GLP-1 activity (EC50, pM) (human GLP-1 receptor): 1.2 pM

B14: MLC083 (ligand)
chain: B10 chain with R20K, A69Q, Q70C, K107P, R180K, R202K, R218K
modifications: Moiety B (HOOC-(CH2)16-CO-gGlu-2XADO-EDA-CO-CH2) on 39C of Linker (70C of fusion polypeptide)
GDF15 activity (EC50, pM) (human GFRAL): 52.4 pM | GLP-1 activity (EC50, pM) (human GLP-1 receptor): 1.7 pM

B16: MLC045 (ligand)
chain: B10 chain with G32K, Q86K, K107P
modifications: Moiety A (HOOC-(CH2)16-CO-gGlu-2XADO) on 1K and 55K of Linker (32K and 86K of fusion polypeptide)
GDF15 activity (EC50, pM) (human GFRAL): 114 pM | GLP-1 activity (EC50, pM) (human GLP-1 receptor): 1.2 pM

B19: MLC064 (ligand)
chain: B10 chain with Q82K, K107P
modifications: Moiety A (HOOC-(CH2)16-CO-gGlu-2XADO) on 51K of Linker (82K of fusion polypeptide)
GDF15 activity (EC50, pM) (human GFRAL): 116 pM | GLP-1 activity (EC50, pM) (human GLP-1 receptor): 1.3 pM

B20: MLC046 (ligand)
chain: B10 chain with P91K, K107P
modifications: Moiety A (HOOC-(CH2)16-CO-gGlu-2XADO) on 60K of linker (91K of fusion polypeptide)
GDF15 activity (EC50, pM) (human GFRAL): 78.9 pM | GLP-1 activity (EC50, pM) (human GLP-1 receptor): 1 pM

B21: MLC018 (ligand)
chain: B10 chain with A81Q, Q82E, P83K, A89Q, Q90E, A97Q, Q98E, A105Q, Q106E, K107P
modifications: Moiety A (HOOC-(CH2)16-CO-gGlu-2XADO) on 52K of Linker (83K of fusion polypeptide)
GDF15 activity (EC50, pM) (human GFRAL): 75.5 pM | GLP-1 activity (EC50, pM) (human GLP-1 receptor): 3.3 pM

B22: MLC075 (ligand)
chain: B10 chain with R20K, G72C, K107P, R180K, R202K, R218K
modifications: Moiety C (HOOC-(CH2)20-CO-gGlu-2XADO-EDA-CO-CH2) on 41C of Linker (72C of fusion polypeptide)
GDF15 activity (EC50, pM) (human GFRAL): 48.6 pM | GLP-1 activity (EC50, pM) (human GLP-1 receptor): 1.3 pM

B24: MLC017 (ligand)
chain: B10 chain with Q86K, K107P
modifications: Moiety A (HOOC-(CH2)16-CO-gGlu-2XADO) on 55K of Linker (86K of fusion polypeptide)
GDF15 activity (EC50, pM) (human GFRAL): 77.6 pM | GLP-1 activity (EC50, pM) (human GLP-1 receptor): 2.8 pM
